Laboratory results from article PMC7806473.
Values joined by “and” are separate entries in the source; they are usually repeats but may differ in a detail not shown here. Equal entries are not always repeated.

What was measured:
[1] = molecular target: T1, bovine alpha-lactalbumin (α-LA), calcium-depleted (bovine), P00711; assay: MALDI-TOF-MS; 1:1 v/v mixture of 0.1% aqueous trifluoroacetic acid MALDI matrix and 50 mM sinapinic acid ionization matrix; settings: remark: other sources report otherwise
T1 chain: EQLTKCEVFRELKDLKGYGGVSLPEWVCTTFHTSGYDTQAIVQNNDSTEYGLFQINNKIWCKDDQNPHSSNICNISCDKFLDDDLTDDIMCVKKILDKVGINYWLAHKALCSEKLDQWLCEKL

[2] = molecular target: T1, bovine alpha-lactalbumin (α-LA), …; assay: AUC; sedimentation velocity, 50,000 rpm, 20 °C, absorbance at 280 nm, c(s) continuous distribution analysis with SEDFIT; settings: remark: other sources report otherwise

B1: bovine alpha-lactalbumin (α-LA), calcium-depleted, P00711 20-142 (natural protein)
chain: EQLTKCEVFRELKDLKGYGGVSLPEWVCTTFHTSGYDTQAIVQNNDSTEYGLFQINNKIWCKDDQNPHSSNICNISCDKFLDDDLTDDIMCVKKILDKVGINYWLAHKALCSEKLDQWLCEKL
With B1 the stoichiometry N [1] was 2 and 3 and 4 and the stoichiometry N [2] was 2 and 3.
